Reference: US20060121483A1, “Methods for detecting teneurin signalling and related screening methods” (priority 2002, published 2006)

Target: TEY (teneurin-2 construct: Transmembrane, EGF-like and YD-repeats; entire long form of the extracellular domain, without cytoplasmic domain) (chicken) (UniProt Q9DER5)
Test: cell-based or functional assay

Luciferase activity (GAL4 reporter; cleavage of the BDAD-teneurin-2 fusion): 6 fold
Substance: BDAD-CTEY (GAL4 binding domain and NFkB activation domain fused to full length teneurin-2) (from UniProt P04386 1-147; Q9DER5 1-2802)
